Measured values from publication PMC7033278, “A Nonpeptide Oxytocin Receptor Agonist for a Durable Relief of Inflammatory Pain” (Scientific Reports, 2020).
Like-named read-outs stand apart in the source and are kept apart here.

What was measured:
[1] = molecular target: T1, ionotropic TRPV1 receptor (Homo sapiens, UniProt Q8NER1); assay: Eurofins functional profiling, TRPV1 agonist/antagonist; type: cell-based; details: 5 μM
T1 construct: Eurofins (contract assay)
Description: In vitro profiling of LIT-001 was performed by Eurofins as described in the Eurofins SafetyScreen-Functional panel, 2018[31]. The hepatotoxicity of LIT-001 was studied with cryo-preserved mouse hepatocytes. After unfreezing (optiTHAW and optiINCUBATE media, Xenotech) and cell viability control, cells (2 × 10^6 cells/ml) were dispatched in 96 well microtiterplates. LIT-001 was added to reach a concentration 1 μM in the presence of 1 × 10^6 cells/mL in a volume of 100 μl/well. The incubation was stopped at 4, 20, 40, 80 and 120 min in adding 100 μl of acetonitrile at 0 °C. A positive control was treated in the same conditions. All samples were analyzed by UHPLC coupled to a mass spectrometer (Shimadzu LC-MS 8030).

[2] = stated for comparison, no reference given; cited from earlier work
[3] = design: method as in PMID 19183510; details: humans and rats; listed as OT; cited from earlier work
[4] = molecular target: Transient Receptor Potential Vanilloid type-1 (TRPV1); design: method as in PMID 29117570; details: cited from earlier work
[5] = design: method as in PMID 6831225; details: rat CSF (abstract: humans and rats), cited from earlier work

T1 sequence (Q8NER1 whole entry): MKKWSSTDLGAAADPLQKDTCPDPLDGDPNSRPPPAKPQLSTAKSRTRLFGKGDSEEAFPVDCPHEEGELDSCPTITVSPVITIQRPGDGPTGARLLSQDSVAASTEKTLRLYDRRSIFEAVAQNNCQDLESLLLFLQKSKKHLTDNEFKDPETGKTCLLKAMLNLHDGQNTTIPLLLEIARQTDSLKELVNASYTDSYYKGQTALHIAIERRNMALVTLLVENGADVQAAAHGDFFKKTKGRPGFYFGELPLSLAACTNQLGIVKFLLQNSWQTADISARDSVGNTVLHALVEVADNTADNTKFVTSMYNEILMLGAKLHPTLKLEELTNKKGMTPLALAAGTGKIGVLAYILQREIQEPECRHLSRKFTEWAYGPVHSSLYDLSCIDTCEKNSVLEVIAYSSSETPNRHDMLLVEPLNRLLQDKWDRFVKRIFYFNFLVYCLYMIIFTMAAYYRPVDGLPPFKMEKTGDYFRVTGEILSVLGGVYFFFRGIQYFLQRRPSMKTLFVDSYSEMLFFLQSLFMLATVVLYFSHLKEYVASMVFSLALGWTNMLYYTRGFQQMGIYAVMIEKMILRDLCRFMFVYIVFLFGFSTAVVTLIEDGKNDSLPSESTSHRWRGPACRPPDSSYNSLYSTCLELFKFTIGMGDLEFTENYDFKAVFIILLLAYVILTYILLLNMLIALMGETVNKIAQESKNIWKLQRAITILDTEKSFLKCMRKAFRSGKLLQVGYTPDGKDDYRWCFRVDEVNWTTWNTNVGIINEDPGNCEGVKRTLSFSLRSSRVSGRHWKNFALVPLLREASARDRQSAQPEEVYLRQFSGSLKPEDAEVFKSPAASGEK

| Compound | agonist or antagonist activity at TRPV1 receptor [1] | half-life [2] | half-life in the blood circulation [3] | EC50 [4] | half-life in cerebrospinal fluid (CSF) [5] | half-life in cerebrospinal fluid (CSF) ([5]; listed as OT) |
| --- | --- | --- | --- | --- | --- | --- |
| Cc1ccccc1N1CCN(S(=O)(=O)C[C@]23CC[C@H](C[C@@H]2NC(=O)[C@@H](N)CCS(C)(=O)=O)C3(C)C)CC1 [L-368,699, reference compound] | neither LIT-001 nor the OT antagonist L-368,699 displayed any significant agonist or antagonist activity |  |  |  |  |  |
| Oxytocin |  | less than 15 min | 5 min | 0.316 µM | around twenty | around 20 minutes |
